Experimental findings from patent US20060172360 are described below.

The target in data set [1] is GST (glutathione S-transferase, negative control substrate) [GST: P08515].
The target in data set [2] is GST-MKK7 (unactive/inactive, Upstate) [GST: P08515].

B1: FLAG-PAK4 (human p21-activated kinase 4 ligated with FLAG-tag at its N-terminus) (protein)
chain: MFGKRKKRVEISAPSNFEHRVHTGFDQHEQKFTGLPRQWQSLIEESARRPKPLVDPACITSIQPGAPKTIVRGSKGAKDGALTLLLDEFENMSVTRSNSLRRDSPPPPARARQENGMPEEPATTARGGPGKAGSRGRFAGHSEAGGGSGDRRRAGPEKRPKSSREGSGGPQESSRDKRPLSGPDVGTPQPAGLASGAKLAAGRPFNTYPRADTDHPSRGAQGEPHDVAPNGPSAGGLAIPQSSSSSSRPPTRARGAPSPGVLGPHASEPQLAPPACTPAAPAVPGPPGPRSPQREPQRVSHEQFRAALQLVVDPGDPRSYLDNFIKIGEGSTGIVCIATVRSSGKLVAVKKMDLRKQQRRELLFNEVVIMRDYQHENVVEMYNSYLVGDELWVVMEFLEGGALTDIVTHTRMNEEQIAAVCLAVLQALSVLHAQGVIHRDIKSDSILLTHDGRVKLSDFGFCAQVSKEVPRRKSLVGTPYWMAPELISRLPYGPEVDIWSLGIMVIEMVDGEPPYFNEPPLKAMKMIRDNLPPRLKNLHKVSPSLKGFLDRLLVRDPAQRATAAELLKHPFLAKAGPPASIVPLMRQNRTR
For B1, the “in-vitro phosphorylation of the substrate (immune complex phosphorylation method, [γ-32P]ATP, SDS-PAGE, autoradiography)” value was “The phosphorylation was not observed when GST was used as a substrate for a negative control” in data set [1] and “The phosphorylation of GST-MKK7 by PAK4 was observed” in data set [2].

B2: HA-JIK (human JNK/SAPK-inhibitory kinase ligated with HA-tag at its N-terminus) (protein)
chain: MRKGVLKDPEIADLFYKDDPEELFIGLHEIGHGSFGAVYFATNAHTSEVVAIKKMSYSGKQTHEKWQDILKEVKFLRQLKHPNTIEYKGCYLKEHTAWLVMEYCLGSASDLLEVHKKPLQEVEIAAITHGALHGLAYLHSHALIHRDIKAGNILLTEPGQVKLADFGSASMASPANSFVGTPYWMAPEVILAMDEGQYDGKVDIWSLGITCIELAERKPPLFNMNAMSALYHIAQNDSPTLQSNEWTDSFRRFVDYCLQKIPQERPTSAELLRHDFVRRDRPLRVLIDLIQRTKDAVRELDNLQYRKMKKILFQETRNGPLNESQEDEEDSEHGTSLNREMDSLGSNHSIPSMSVSTGSQSSSVNSMQEVMDESSSELVMMHDDESTINSSSSVVHKKDHVFIRDEAGHGDPRPEPRPTQSVQSQALHYRNRERFATIKSASLVTRQIHEHEQENELREQMSGYKRMRRQHQKQLIALENKLKAEMDEHRLKLQKEVETHANNSSIELEKLAKKQVAIIEKEAKVAAADEKKFQQQILAQQKKDLTTFLESQKKQYKICKEKIKEEMNEDHSTPKKEKQERISKHKENLQHTQAEEEAHLLTQQRLYYDKNCRFFKRKIMIKRHEVEQQNIREELNKKRTQKEMEHAMLIRHDESTRELEYRQLHTLQKLRMDLIRLQHQTELENQLEYNKRRERELHRKHVMELRQQPKNLKAMEMQIKKQFQDTCKVQTKQYKALKNHQLEVTPKNEHKTILKTLKDEQTRKLAILAEQYEQSINEMMASQALRLDEAQEAECQALRLQLQQEMELLNAYQSKIKMQTEAQHERELQKLEQRVSLRRAHLEQKIEEELAALQKERSERIKNLLERQEREIETFDMESLRMGFGNLVTLDFPKEDYR
Take B2: the “in-vitro phosphorylation of the substrate (immune complex phosphorylation method, [γ-32P]ATP, SDS-PAGE, autoradiography)” value in data set [1] is listed as “The phosphorylation was not observed when GST was used as a substrate for a negative control”; in data set [2], “The phosphorylation of GST-MKK7 by JIK was observed”.
